Experimental data published in US20240076398A1.

Assays:
[1] = molecular target: human C5aR1 (complement component 5a receptor 1) (human) (UniProt P21730); assay: flow cytometry, Expi293 with transient human C5aR1, 100 nM antibody; mock 3,722
[2] = molecular target: human C5aR1 (complement component 5a receptor 1) (human) (UniProt P21730); assay: flow cytometry, Expi293 with transient human C5aR1, secondary antibody alone; mock 3,052

human C5aR1 (complement component 5a receptor 1) (human), sequence (P21730 other isoform, or with tags, fused parts or gaps): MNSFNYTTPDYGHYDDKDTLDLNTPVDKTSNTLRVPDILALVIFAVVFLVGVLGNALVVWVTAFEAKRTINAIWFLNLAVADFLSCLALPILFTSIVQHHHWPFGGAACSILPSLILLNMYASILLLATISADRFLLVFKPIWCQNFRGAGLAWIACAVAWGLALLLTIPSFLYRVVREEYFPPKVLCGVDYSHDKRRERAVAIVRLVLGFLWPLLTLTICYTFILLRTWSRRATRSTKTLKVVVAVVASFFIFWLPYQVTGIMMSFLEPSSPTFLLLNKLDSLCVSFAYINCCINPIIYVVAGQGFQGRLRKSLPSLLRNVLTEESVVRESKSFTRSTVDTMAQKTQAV

Row | geometric mean fluorescent intensity [1] | geometric mean fluorescent intensity [2] | Substance
1 | 6550 | – | Isotype control (Table 6) (antibody)
2 | – | 5350 | Anti-human-APC secondary antibody alone
